Tests used:
Test in all cases: filter
Conditions in all cases: 5-BrdU replaces T, apparent photocrosslink KD
[1] = biological target: T1, Interleukin-4 (UniProt P05112)
T1 sequence: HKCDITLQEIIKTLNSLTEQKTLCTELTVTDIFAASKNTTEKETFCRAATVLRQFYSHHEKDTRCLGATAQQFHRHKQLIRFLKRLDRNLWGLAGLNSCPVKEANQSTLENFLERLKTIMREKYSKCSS

[2] = biological target: Angiogenin (UniProt P03950)
[3] = biological target: beta-Nerve Growth Factor (beta-NGF) (UniProt P01138)
[4] = biological target: platelet-derived growth factor (PDGF) (Homo sapiens) (UniProt P01127)
[5] = biological target: T2, P-Selectin (Homo sapiens) (UniProt P16109)
T2 sequence: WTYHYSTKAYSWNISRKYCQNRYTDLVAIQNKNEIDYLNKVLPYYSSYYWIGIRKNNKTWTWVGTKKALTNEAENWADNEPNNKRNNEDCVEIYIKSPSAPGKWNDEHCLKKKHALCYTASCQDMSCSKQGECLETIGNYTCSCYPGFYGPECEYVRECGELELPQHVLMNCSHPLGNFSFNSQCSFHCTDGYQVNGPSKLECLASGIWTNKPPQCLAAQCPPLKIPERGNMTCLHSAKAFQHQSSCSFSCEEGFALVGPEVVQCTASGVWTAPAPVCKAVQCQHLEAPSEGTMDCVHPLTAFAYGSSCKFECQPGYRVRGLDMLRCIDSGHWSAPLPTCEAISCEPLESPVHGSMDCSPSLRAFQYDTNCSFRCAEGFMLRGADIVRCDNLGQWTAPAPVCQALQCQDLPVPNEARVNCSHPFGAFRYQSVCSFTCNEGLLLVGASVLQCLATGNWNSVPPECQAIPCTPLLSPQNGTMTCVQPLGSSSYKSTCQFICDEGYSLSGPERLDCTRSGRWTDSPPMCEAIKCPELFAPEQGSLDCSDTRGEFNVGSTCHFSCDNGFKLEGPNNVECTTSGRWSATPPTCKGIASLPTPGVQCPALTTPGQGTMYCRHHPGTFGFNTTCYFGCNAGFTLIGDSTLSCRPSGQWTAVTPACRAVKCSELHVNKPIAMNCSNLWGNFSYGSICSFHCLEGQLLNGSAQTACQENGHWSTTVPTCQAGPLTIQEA

[6] = biological target: Transforming Growth Factor beta1 (TGF-beta1) (UniProt P01137)
Sequence of Transforming Growth Factor beta1 (TGF-beta1) (P01137 279-390): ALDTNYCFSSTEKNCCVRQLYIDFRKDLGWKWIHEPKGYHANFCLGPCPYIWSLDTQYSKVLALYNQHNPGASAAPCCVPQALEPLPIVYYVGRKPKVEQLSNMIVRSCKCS

Sequence of platelet-derived growth factor (PDGF) (Homo sapiens) (P01127 82-190): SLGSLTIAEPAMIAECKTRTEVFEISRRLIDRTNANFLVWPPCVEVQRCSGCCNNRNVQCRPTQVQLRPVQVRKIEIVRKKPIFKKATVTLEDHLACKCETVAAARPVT
Sequence of beta-Nerve Growth Factor (beta-NGF) (P01138 122-241): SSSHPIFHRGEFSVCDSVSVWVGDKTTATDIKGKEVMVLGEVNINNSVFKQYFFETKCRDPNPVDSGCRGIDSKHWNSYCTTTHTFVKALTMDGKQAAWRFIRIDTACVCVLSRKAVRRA
Sequence of Angiogenin (P03950 25-147): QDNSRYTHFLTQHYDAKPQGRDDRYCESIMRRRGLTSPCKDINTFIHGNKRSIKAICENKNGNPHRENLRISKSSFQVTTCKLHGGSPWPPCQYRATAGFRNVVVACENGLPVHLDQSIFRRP

ATATATATGGGAGGACGATGCGGGCCTACCAACTCCCCTCTAGTCCTGTTCTATCCACGTTGGCAGACGACGAGCGGGAAAAAAAA [IL-4 pool 012 clone 31]
Kd ([1]; plateau 49%, rate 0.98): 21 nM

ATATATATGGGAGGACGATGCGGGCCCTACTTGCATGAATATCCACTCCTAGGCTTGAGGGAGCAGACGACGAGCGGGAAAAAAAA [Angiogenin pool 011 clone 85]
Kd ([2]; plateau 31%, rate 3.5): 0.2 nM

ATATATATGGGAGGACGATGCGGGCCCCAAACACTTGTTCCTATCTTTCAACCCCCCTTGATCCAGACGACGAGCGGGAAAAAAAA [beta-NGF pool 031 clone 78]
Kd ([3]; plateau 94%, rate 0.38): 31 nM

ATATATATGGGAGGACGATGCGGGCACACTTAAATCCACTTCACCTTACAATTCCTTTATCTGCAGACGACGAGCGGGAAAAAAAA [beta-NGF pool 031 clone 17]
Kd ([3]; plateau 66%, rate 1.2, Table 7 sequence differs slightly from listing): 0.21 nM

ATATATATGGGAGGACGATGCGGGGGGCAAGAAGCACGGTACCCCAGGTCCGCCAGACGACGAGCGGGAAAAAAAA [PDGF pool 008 clone 33]
Kd ([4]; plateau 100%, rate 0.24): 5.7 nM

ATATATATGGGAGGACGATGCGGCAGCACCGAGGTACCCAACAGGGATCCGCCCAGACGACGAGCGGGAAAAAAAA [PDGF pool 008 clone 26]
Kd ([4]; plateau 67%, rate 0.43): 1.8 nM

ATATATATGGGAGGACGATGCGGGCCAACCCCTAGTGAACAACAACACTCCCACAGACGACGAGCGGGAAAAAAAA [PDGF pool 4 clone 87]
Kd ([4]; plateau 36%, rate 0.29): 2 nM

ATATATATGGGAGGACGATGCGGGCCACGTGTATTATCCTCAGCTTATAGCCATGGCATGGACCAGACGACGAGCGGGAAAAAAAA [Angiogenin pool 011 clone 58]
Kd ([2]; plateau 16%, rate 1.58): 2.2 nM

ATATATATGGGAGGACGATGCGGCCATACGCACTTCAGTGGGGATAATCCAACTGGTTTGGTGCAGACGACGAGCGGGAAAAAAAA [P-selectin pool 014 clone 95]
Kd ([5]; plateau 39%, rate 1.54, same sequence as SEQ 39): 45 nM

ATATATATGGGAGGACGATGCGGGCCGAAGTCTAAACCTGCTCGTGACTTTCTTTCGATGTTGCAGACGACGAGCGGGAAAAAAAA [IL-4 pool 012 clone 8]
Kd ([1]; plateau 40%, rate 1.8): 39 nM

ATATATATGGGAGGACGATGCGGGCGGCAGACGCGCCGGGTACCCCAGGTCCCCAGACGACGAGCGGGAAAAAAAA [PDGF pool 008 clone 27]
Kd ([4]; plateau 100%, rate 0.34): 3.2 nM

ATATATATGGGAGGACGATGCGGGACCAAATACCAACTTCACATCACCTTTCTTATTCTCCGGCAGACGACGAGCGGGAAAAAAAA [beta-NGF pool 031 clone 44]
Kd ([3]; plateau 58%, rate 0.59): 2.2 nM

ATATATATGGGAGGACGATGCGGGCCAAATGGACTTTTCGCCACGAACTTACGACGGTGTTGCCAGACGACGAGCGGGAAAAAAAA [Angiogenin pool 011 clone 16]
Kd ([2]; plateau 28%, rate 2.6): 0.3 nM

ATATATATGGGAGGACGATGCGGCCATGAACCCATCCTCTGGTTCATAATCGACGTGTTCGTGCAGACGACGAGCGGGAAAAAAAA [P-selectin pool 014 clone 17]
Kd ([5]; plateau 59%, rate 1.36): 18 nM

ATATATATGGGAGGACGATGCGGGCGAAGGCACACCGAGTTCATAGTATCCCACAGACGACGAGCGGGAAAAAAAA [PDGF pool 4 clone 64]
Kd ([4]; plateau 53%, rate 0.2): 4 nM

ATATATATGGGAGGACGATGCGGCAAGGGAAACAGATAGCCCAGGCTCCCCCCCAGACGACGAGCGGGAAAAAAAA [PDGF pool 008 clone 37]
Kd ([4]; plateau 74%, rate 0.21): 2.4 nM

ATATATATGGGAGGACGATGCGGGCTCAATAACCTGAATCTACCTTTCCCTAGCAAAGGTCTGCAGACGACGAGCGGGAAAAAAAA [P-selectin pool 014 clone 24]
Kd ([5]; plateau 30%, rate 1.86): 2.1 nM

ATATATATGGGAGGACGATGCGGGCACTAACTTTACCTCCACCTCTAACCACCCTCCTTTCTGCAGACGACGAGCGGGAAAAAAAA [beta-NGF pool 031 clone 65]
Kd ([3]; plateau 47%, rate 0.94): 0.2 nM

ATATATATGGGAGGACGATGCGGGCCAAGGTTCCCTTCTGCCTCATTGTTGTGGGAACCCATCCAGACGACGAGCGGGAAAAAAAA [IL-4 pool 012 clone 41]
Kd ([1]; plateau 58%, rate 0.54, Table 7 sequence differs slightly from listing): 61 nM

ATATATATGGGAGGACGATGCGGCCCCGAGTTTCCCTAAGGTTTGGTTGACCTGTCATTTCAGCAGACGACGAGCGGGAAAAAAAA [IL-4 pool 012 clone 48]
Kd ([1]; plateau 52%, rate 0.17): 4.3 nM

ATATATATGGGAGGACGATGCGGCACCAAAAGGTGGTCTTAGCCTAATTATGGACGTGTCCACCAGACGACGAGCGGGAAAAAAAA [Angiogenin pool 011 clone 27]
Kd ([2]; plateau 37%, rate 0.62): 0.3 nM

ATATATATGGGAGGACGATGCGGGCACCTTTCTTACATCTTGGCTTCATTCTTGCACCATTGGCAGACGACGAGCGGGAAAAAAAA [TGF-beta1 pool 015 clone 83]
Kd ([6]; plateau 80%, rate 0.82): 4.3 nM

ATATATATGGGAGGACGATGCGGGCACAACCTTACCACCCTAGCCTACCCCTAACCTCCTGTCCAGACGACGAGCGGGAAAAAAAA [TGF-beta1 pool 015 clone 74]
Kd ([6]; plateau 79%, rate 0.34): 4.9 nM

ATATATATGGGAGGACGATGCGGCCGGACATCCCCCAGGGCAAAACCAACTCCCAGACGACGAGCGGGAAAAAAAA [PDGF pool 008 clone 35]
Kd ([4]; plateau 71%, rate 0.07): 5.1 nM

ATATATATGGGAGGACGATGCGGGGCAAACTGCGTCGTATTATAAGCCTCGCTACAGATGCCACAGACGACGAGCGGGAAAAAAAA [Angiogenin pool 011 clone 12]
Kd ([2]; plateau 31%, rate 0.68): 0.1 nM

ATATATATGGGAGGACGATGCGGGCAGCAACCTACCTTACCTTCCCCTAGCCTACCTTATCCCCAGACGACGAGCGGGAAAAAAAA [TGF-beta1 pool 015 clone 82]
Kd ([6]; plateau 100%, rate 0.54): 7.1 nM

ATATATATGGGAGGACGATGCGGGACCAATAACACTACACTGATCATCTCCCTTCTATGTCCCCAGACGACGAGCGGGAAAAAAAA [beta-NGF pool 031 clone 7]
Kd ([3]; plateau 55%, rate 0.42): 2.5 nM

ATATATATGGGAGGACGATGCGGGCCAAGGACATTCTTGTTCGTTGTTGCTGTCCACTGTCTCCAGACGACGAGCGGGAAAAAAAA [IL-4 pool 012 clone 78]
Kd ([1]; plateau 10%, rate 1.7): 9.7 nM

ATATATATGGGAGGACGATGCGGGCAAAGTCTTGGTCCACCAAATATGTGATGTCACCACCAGCAGACGACGAGCGGGAAAAAAAA [Angiogenin pool 011 clone 59]
Kd ([2]; plateau 26%, rate 0.52): 0.22 nM

ATATATATGGGAGGACGATGCGGGCACCTACCTGAGCTACATATGACAGTGTCACCCTGGCCCCAGACGACGAGCGGGAAAAAAAA [Angiogenin pool 011 clone 14]
Kd ([2]; plateau 34%, rate 1.3): 0.2 nM

ATATATATGGGAGGACGATGCGGCCATACGCACTTCAGTGGGGATAATCCAACTGGTTTGGTGCAGACGACGAGCGGGAAAAAAAA [beta-NGF pool 031 clone 43]
Kd ([3]; plateau 38%): 7.9 nM

ATATATATGGGAGGACGATGCGGCACGAGGGAATCACCTCGAACTTGTCCTGGATTACTGCCCAGACGACGAGCGGGAAAAAAAA [P-selectin pool 014 clone 21]
Kd ([5]; plateau 31%, rate 0.76): 9.1 nM

ATATATATGGGAGGACGATGCGGGCCAACCACGTGGTATTATTGACCTTGCAATGGGAATGCCCAGACGACGAGCGGGAAAAAAAA [Angiogenin pool 011 clone 11]
Kd ([2]; plateau 23%, rate 1.46): 1.1 nM

ATATATATGGGAGGACGATGCGGCACAAGGAACAAAGCGGCCCCTATCCCCAACAGACGACGAGCGGGAAAAAAAA [PDGF pool 008 clone 31]
Kd ([4]; plateau 100%, rate 0.19): 5.3 nM

ATATATATGGGAGGACGATGCGGCGCCCCGATTGACCTTCGATTTATCCTACTTATGGCACCCCAGACGACGAGCGGGAAAAAAAA [P-selectin pool 014 clone 14]
Kd ([5]; plateau 15%, rate 4): 0.35 nM

ATATATATGGGAGGACGATGCGGGCGGAAGAGGCAGGGTACCACGGCAGAGGTCAGACGACGAGCGGGAAAAAAAA [PDGF pool 4 clone 24]
Kd ([4]; plateau 52%, rate 0.25): 2 nM

Source: patent publication US20030054360
